Laboratory results taken from patent CN116199778A (SHANGHAI JUNSHI BIOSCIENCES CO LTD; JUNMENG BIOSCIENCES CO …, dated 2023).

T1: 含有His标签的鼠4-1BB (mouse 4-1BB with His tag, Sino Biological 50811-M08H) (mouse, UniProt P20334 24-187)
T1 construct: Bought protein; Coated on the ELISA plate at 1.0 ug/mL; not shown: His tag
T1 sequence (looked up): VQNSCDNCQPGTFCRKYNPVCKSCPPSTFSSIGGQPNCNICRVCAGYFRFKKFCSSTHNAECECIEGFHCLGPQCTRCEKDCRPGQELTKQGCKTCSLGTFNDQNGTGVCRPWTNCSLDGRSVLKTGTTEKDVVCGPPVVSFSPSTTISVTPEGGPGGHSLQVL

B1: Urelumab (antibody, V domains shown)
VH: QVQLQQWGAGLLKPSETLSLTCAVYGGSFSGYYWSWIRQSPEKGLEWIGEINHGGYVTYNPSLESRVTISVDTSKNQFSLKLSSVTAADTAVYYCARDYGPGNYDWYFDLWGRGTLVTVSS
VL: EIVLTQSPATLSLSPGERATLSCRASQSVSSYLAWYQQKPGQAPRLLIYDASNRATGIPARFSGSGSGTDFTLTISSLEPEDFAVYYCQQRSNWPPALTFGGGTKVEIK
B2: JS011-phage6 (antibody, V domains shown)
VH: QVQLVQSGAEVKKPGASVKVSCKASGYTFTGQYIHWARQAPGQGLEWMGWINPNSGGTNYAQKFQGRVTMTRDTSISTAYMELSRLRSDDTAVYYCARDKAGADYWGQGTLVTVSS
VL: ELALTQPPSVSGSPGQSITISCTGTSSDIGGYDYVSWYQQYPGKAPKLMISGVSNRPSGVSNRFSGSKSGNTASLIISGLQAEDEGDYYCSSYTSRSTRWVFGGGTKLTVL
B3: JS011-phage3 (antibody, V domains shown)
VH: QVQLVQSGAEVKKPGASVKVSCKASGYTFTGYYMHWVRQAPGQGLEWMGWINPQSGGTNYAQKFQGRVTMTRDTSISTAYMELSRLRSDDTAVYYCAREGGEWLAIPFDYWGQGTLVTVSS
VL: ELELTQPPSVSVSPGQTASITCSADKLGDKYASWYQQKPGQSPVLVLYEDSKRPSGIPERISGSNSGNTATLTIRGTQPMDEADYYCQTWDTNTVLFGGGTRLTVL

Key:
[1] = target: 4-1BB on the surface of Jurkat NFKB 4-1BB cells (UniProt Q07011 24-255, limits assumed); assay: cell-based or functional assay
[2] = target: T1, 含有His标签的鼠4-1BB (mouse 4-1BB with His …); assay: ELISA, His-tagged mouse 4-1BB coated at 1.0 ug/mL, antibody titrated, anti-human IgG4 Fc HRP detection

4-1BB on the surface of Jurkat NFKB 4-1BB cells, sequence (Q07011 24-255 limits assumed): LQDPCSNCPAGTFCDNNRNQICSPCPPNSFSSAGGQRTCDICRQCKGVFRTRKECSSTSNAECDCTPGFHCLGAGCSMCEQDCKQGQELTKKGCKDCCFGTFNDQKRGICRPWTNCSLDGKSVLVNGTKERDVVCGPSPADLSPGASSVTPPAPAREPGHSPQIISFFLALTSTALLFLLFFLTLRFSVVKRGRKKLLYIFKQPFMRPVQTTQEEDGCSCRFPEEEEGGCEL

Binder	EC50, luciferase reporter (RLU), Raji / Jurkat NFKB 4-1BB two-cell system [1] [µg/mL]	EC50, luciferase reporter (RLU), Raji / Jurkat NFKB (4-1BB low expression) two-cell system [1] [µg/mL]	EC50, luciferase reporter (RLU), THP-1 / Jurkat NFKB 4-1BB two-cell system [1] [µg/mL]	binding result [2]
B1	7.24	86	219	
B2	2.71		0.283	no binding (tested: 1μg/ml起始)
B3	9.45	9.45	0.00664	
